# PMC12529666, “Dysregulation of AGO2-miRNA dynamics underlies the AGO2-associated Lessel–Kreienkamp syndrome”
# Experiments:
# [1] = molecular target: T1, AGO2 T357M (Homo sapiens, UniProt Q9UKV8 1-859, T357M;S387D;S824A;S828D;S831D;S834A); experiment: filter binding; 2 mM Mg2+; 30 mM Tris pH 8.0, 100 mM KOAc, 2 mM MgOAc, 0.5 mM TCEP, 0.005% NP-40, 0.01 mg/ml yeast tRNA, room temperature, 2 h (equilibrium); association buffer listed without Mg; conditions: protein: recombinant; tags: His6 (N-terminal, pFastBac HTA); label: 32P 5' on target; guide g2-g8 paired with target ACACUCC; remainder unpaired
# T1 sequence (Q9UKV8 whole entry T357M/S387D/S824A/S828D/S831D/S834A): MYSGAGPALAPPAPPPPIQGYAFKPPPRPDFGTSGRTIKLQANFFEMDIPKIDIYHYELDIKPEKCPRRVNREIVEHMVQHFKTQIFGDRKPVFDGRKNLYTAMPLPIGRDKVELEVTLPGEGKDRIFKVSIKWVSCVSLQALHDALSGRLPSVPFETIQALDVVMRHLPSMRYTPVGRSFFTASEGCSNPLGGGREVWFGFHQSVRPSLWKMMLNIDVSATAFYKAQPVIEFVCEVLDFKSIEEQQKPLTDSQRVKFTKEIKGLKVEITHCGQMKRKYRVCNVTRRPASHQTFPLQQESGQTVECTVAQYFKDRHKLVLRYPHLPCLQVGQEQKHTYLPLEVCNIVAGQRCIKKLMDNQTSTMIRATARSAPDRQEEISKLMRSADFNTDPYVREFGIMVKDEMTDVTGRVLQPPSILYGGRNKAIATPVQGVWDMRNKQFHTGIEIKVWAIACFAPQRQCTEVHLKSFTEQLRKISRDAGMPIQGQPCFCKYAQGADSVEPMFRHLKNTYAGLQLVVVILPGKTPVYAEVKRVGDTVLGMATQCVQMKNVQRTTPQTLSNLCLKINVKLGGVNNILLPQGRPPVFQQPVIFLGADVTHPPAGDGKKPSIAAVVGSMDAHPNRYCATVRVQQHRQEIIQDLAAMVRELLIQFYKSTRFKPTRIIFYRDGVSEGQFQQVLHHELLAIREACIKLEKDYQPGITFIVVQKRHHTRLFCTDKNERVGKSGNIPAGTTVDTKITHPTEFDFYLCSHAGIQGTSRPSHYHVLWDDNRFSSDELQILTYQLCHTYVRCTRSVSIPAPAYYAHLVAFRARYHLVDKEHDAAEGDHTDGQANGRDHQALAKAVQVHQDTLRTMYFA
# [2] = molecular target: T2, AGO2 A367P (Homo sapiens, UniProt Q9UKV8 1-859, A367P;S387D;S824A;S828D;S831D;S834A); experiment: filter binding (dissociation); 300 nM unlabeled target chase; 30 mM Tris pH 8.0, 100 mM KOAc, 2 mM MgOAc, 0.5 mM TCEP, 0.005% NP-40, 0.01 mg/ml yeast tRNA, room temperature, 2 h (equilibrium); association buffer listed without Mg; conditions: protein: recombinant; tags: His6 (N-terminal, pFastBac HTA); label: 32P 5' on target; guide g2-g8 paired with target ACACUCC; remainder unpaired
# T2 sequence (Q9UKV8 whole entry A367P/S387D/S824A/S828D/S831D/S834A): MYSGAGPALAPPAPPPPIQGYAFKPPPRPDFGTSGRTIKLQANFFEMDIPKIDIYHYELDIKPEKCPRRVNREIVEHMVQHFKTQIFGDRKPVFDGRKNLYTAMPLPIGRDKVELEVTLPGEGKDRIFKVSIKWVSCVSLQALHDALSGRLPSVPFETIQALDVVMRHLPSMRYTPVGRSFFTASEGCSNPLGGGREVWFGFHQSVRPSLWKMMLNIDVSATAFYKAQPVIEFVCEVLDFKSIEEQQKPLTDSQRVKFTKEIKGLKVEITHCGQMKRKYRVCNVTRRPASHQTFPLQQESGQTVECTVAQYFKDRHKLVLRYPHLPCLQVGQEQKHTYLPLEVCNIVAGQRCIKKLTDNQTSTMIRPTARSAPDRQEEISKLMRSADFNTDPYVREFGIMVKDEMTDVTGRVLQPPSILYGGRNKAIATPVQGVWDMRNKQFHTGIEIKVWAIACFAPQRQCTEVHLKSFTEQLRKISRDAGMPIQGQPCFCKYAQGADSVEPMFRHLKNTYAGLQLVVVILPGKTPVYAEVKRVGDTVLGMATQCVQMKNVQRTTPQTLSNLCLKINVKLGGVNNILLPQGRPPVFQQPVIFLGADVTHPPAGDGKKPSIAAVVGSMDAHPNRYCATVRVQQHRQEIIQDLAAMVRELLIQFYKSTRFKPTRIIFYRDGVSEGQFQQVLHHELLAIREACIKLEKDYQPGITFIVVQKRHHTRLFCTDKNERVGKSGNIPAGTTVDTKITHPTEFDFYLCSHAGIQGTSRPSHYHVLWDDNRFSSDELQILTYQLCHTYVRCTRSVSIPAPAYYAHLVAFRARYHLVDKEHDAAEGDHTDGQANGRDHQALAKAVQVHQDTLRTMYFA
# [3] = molecular target: T1, AGO2 T357M; experiment: as above; conditions: protein: recombinant; tags: His6 (N-terminal, pFastBac HTA); label: 32P 5' on target; guide g2-g8 paired with target ACACUCC; remainder unpaired
# [4] = molecular target: T2, AGO2 A367P; experiment: filter binding (association); AGO2-miR-122 0.25-1.5 nM; 30 mM Tris pH 8.0, 100 mM KOAc, 2 mM MgOAc, 0.5 mM TCEP, 0.005% NP-40, 0.01 mg/ml yeast tRNA, room temperature, 2 h (equilibrium); association buffer listed without Mg; conditions: protein: recombinant; tags: His6 (N-terminal, pFastBac HTA); label: 32P 5' on target; guide g2-g8 paired with target ACACUCC; remainder unpaired
# [5] = molecular target: T3, AGO2 L192P (Homo sapiens, UniProt Q9UKV8 1-859, L192P;S387D;S824A;S828D;S831D;S834A); experiment: as above; conditions: protein: recombinant; tags: His6 (N-terminal, pFastBac HTA); label: 32P 5' on target; guide g2-g8 paired with target ACACUCC; remainder unpaired
# T3 sequence (Q9UKV8 whole entry L192P/S387D/S824A/S828D/S831D/S834A): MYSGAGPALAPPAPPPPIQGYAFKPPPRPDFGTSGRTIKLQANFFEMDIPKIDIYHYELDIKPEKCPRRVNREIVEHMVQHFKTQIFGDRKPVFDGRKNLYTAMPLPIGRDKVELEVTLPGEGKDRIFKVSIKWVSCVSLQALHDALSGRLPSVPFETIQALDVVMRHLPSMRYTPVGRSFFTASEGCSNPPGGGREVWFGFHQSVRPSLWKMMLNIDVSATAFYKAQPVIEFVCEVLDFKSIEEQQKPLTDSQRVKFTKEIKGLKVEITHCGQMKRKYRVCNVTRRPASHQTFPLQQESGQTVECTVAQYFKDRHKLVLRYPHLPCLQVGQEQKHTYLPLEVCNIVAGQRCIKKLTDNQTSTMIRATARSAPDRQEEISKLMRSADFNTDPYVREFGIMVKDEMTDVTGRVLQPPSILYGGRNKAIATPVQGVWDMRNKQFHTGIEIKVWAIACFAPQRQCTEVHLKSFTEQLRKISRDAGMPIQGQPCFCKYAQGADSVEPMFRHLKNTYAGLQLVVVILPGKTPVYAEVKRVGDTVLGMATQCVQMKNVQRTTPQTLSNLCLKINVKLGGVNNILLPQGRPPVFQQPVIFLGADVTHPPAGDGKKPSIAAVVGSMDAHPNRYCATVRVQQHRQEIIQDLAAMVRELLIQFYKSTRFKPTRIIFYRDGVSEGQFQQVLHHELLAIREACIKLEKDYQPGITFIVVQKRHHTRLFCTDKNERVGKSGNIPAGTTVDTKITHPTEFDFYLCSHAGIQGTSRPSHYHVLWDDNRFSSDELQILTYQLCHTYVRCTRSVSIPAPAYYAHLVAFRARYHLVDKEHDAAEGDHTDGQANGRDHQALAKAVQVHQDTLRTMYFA
# [6] = molecular target: T3, AGO2 L192P; experiment: filter binding (dissociation); 300 nM unlabeled target chase; slowest release; 30 mM Tris pH 8.0, 100 mM KOAc, 2 mM MgOAc, 0.5 mM TCEP, 0.005% NP-40, 0.01 mg/ml yeast tRNA, room temperature, 2 h (equilibrium); association buffer listed without Mg; conditions: protein: recombinant; tags: His6 (N-terminal, pFastBac HTA); label: 32P 5' on target; guide g2-g8 paired with target ACACUCC; remainder unpaired
# [7] = molecular target: T2, AGO2 A367P; experiment: northern blot of purified complex; ~1:1 AGO2:miR-122; 30 mM Tris pH 8.0, 100 mM KOAc, 2 mM MgOAc, 0.5 mM TCEP, 0.005% NP-40, 0.01 mg/ml yeast tRNA, room temperature, 2 h (equilibrium); association buffer listed without Mg; conditions: protein: recombinant; tags: His6 (N-terminal, pFastBac HTA)
# [8] = molecular target: T1, AGO2 T357M; experiment: as above; conditions: protein: recombinant; tags: His6 (N-terminal, pFastBac HTA)
# [9] = molecular target: T4, AGO2 F182del (Homo sapiens, UniProt Q9UKV8 1-859, S387D;S824A;S828D;S831D;S834A;del182-182); experiment: as above; conditions: protein: recombinant; tags: His6 (N-terminal, pFastBac HTA)
# T4 sequence (Q9UKV8 other isoform, or with tags, fused parts or gaps S387D;S824A;S828D;S831D;S834A;del182-182): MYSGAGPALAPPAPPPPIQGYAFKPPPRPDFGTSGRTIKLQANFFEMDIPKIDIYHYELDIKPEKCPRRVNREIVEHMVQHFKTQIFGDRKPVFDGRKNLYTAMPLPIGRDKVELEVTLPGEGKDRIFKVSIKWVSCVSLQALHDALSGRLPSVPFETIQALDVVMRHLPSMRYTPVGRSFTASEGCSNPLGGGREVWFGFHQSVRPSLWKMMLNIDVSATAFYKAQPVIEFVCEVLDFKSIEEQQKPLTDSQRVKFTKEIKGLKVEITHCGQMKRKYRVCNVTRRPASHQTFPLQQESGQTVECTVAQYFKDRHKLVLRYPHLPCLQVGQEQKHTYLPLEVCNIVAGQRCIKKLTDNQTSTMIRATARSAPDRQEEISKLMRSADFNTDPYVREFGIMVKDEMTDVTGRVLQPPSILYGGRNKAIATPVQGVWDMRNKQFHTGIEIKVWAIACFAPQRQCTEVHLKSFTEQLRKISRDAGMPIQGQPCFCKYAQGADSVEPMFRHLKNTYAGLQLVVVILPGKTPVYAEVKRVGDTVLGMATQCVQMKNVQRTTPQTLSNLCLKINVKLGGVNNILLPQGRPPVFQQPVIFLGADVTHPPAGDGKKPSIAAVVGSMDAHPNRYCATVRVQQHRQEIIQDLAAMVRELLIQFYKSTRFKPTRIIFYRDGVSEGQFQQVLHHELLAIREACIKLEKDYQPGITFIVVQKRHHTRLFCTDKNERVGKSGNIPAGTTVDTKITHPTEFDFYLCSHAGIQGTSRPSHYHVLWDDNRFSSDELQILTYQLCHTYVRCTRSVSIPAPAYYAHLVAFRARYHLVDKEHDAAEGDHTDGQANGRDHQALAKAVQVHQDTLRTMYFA
# [10] = molecular target: T3, AGO2 L192P; experiment: as above; conditions: protein: recombinant; tags: His6 (N-terminal, pFastBac HTA)
# [11] = molecular target: T2, AGO2 A367P; experiment: pull-down; recovery similar to WT; 30 mM Tris pH 8.0, 100 mM KOAc, 2 mM MgOAc, 0.5 mM TCEP, 0.005% NP-40, 0.01 mg/ml yeast tRNA, room temperature, 2 h (equilibrium); association buffer listed without Mg; conditions: protein: recombinant; tags: His6 (N-terminal, pFastBac HTA); label: biotin on capture oligo; guide paired in part with capture oligo
# [12] = molecular target: T1, AGO2 T357M; experiment: as above; conditions: protein: recombinant; tags: His6 (N-terminal, pFastBac HTA); label: biotin on capture oligo; guide paired in part with capture oligo
# [13] = molecular target: T4, AGO2 F182del; experiment: as above; conditions: protein: recombinant; tags: His6 (N-terminal, pFastBac HTA); label: biotin on capture oligo; guide paired in part with capture oligo
# [14] = molecular target: T3, AGO2 L192P; experiment: as above; conditions: protein: recombinant; tags: His6 (N-terminal, pFastBac HTA); label: biotin on capture oligo; guide paired in part with capture oligo
binder,measurement,setting,value
"miR-122 guide / seed-matched target RNA (dsRNA, 5' phosphate on guide) RNA 1: UGGAGUGUGACAAUGGUGUUUG RNA 2: AAAAAAAAAAAAACACUCCUAA",binding signal,[1],1.8 fold lower KD than WT (not significant)
same,binding signal,[2],~20 fold slower koff (slow phase) vs near-WT fast phase
same,binding signal,[3],~20 fold slower koff (slow phase) vs near-WT fast phase
same,binding signal,[4],> 5 fold slower association than WT (at least)
same,binding signal,[5],> 5 fold slower association than WT (at least)
same,binding signal,[6],~20 fold slower koff (slow phase) vs near-WT fast phase
"UGGAGUGUGACAAUGGUGUUUG (ssRNA, 5' phosphate) [miR-122 guide RNA]",binding result,[7],binds
same,binding result,[8],binds
same,binding result,[9],binds
same,binding result,[10],binds
"miR-122 guide / biotinylated capture oligo (DNA:RNA, 5' phosphate on guide) RNA: UGGAGUGUGACAAUGGUGUUUG DNA: TCTCGTCTAACCATGCCAACACTCCAACTCT",binding result,[11],binds
same,binding result,[12],binds
same,binding result,[13],binds
same,binding result,[14],binds
